This note sets out measurements from PMC9977175.

Assay [1] addresses SUMO-tagged WIPI2b^Δ (residues 13 to 362 without 265 to 297) (human). As to the kind of experiment: SEC-MALS. For orientation: Size exclusion chromatography separates by hydrodynamic size, large species first.
The target is the same in assay [2]. Put plainly: ITC. (In general: ITC needs no label: the signal is the heat of the interaction.)

Trx-tagged ATG16L1(78 to 247), sequence (Q676U5 78-247): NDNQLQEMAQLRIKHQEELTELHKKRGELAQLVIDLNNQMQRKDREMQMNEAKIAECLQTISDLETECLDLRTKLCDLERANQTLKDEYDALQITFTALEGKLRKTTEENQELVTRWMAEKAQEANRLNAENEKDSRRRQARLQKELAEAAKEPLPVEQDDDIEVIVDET
Trx-tagged ATG16L1(78 to 206), sequence (Q676U5 78-206): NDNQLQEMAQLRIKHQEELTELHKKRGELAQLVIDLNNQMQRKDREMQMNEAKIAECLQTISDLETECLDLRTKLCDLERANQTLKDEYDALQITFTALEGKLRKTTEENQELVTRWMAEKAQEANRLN
Trx-tagged ATG16L1(207 to 247), sequence (Q676U5 207-247): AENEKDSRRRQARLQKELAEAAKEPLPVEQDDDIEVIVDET
ATG16L1(124 to 247), sequence (Q676U5 124-247): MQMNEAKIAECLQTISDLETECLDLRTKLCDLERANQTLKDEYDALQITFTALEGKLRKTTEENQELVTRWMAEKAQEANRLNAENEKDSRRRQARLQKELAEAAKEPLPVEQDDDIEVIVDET

With “ATG16L1(124 to 247) (from UniProt Q676U5 124-247) (domain or fragment)”, the stoichiometry N (ATG16L1 chains per WIPI2b^Δ (2:2)) in assay [1] is 1.

The term Kd denotes the constant that tells how readily two partners part at equilibrium. Low values mean tighter binding, high ones weaker binding. “Trx-tagged ATG16L1(78 to 206) (from UniProt Q676U5 78-206) (domain or fragment)”: the Kd in assay [2] was 6.88 µM.

Consider “Trx-tagged ATG16L1(78 to 247) (from UniProt Q676U5 78-247) (domain or fragment)”, for which, in assay [2], the KD of the WBS1 site (two-site fit) stood at 2.88 µM and the KD of the WBS2 site (two-site fit) was found to be 0.41 µM.

In the case of “Trx-tagged ATG16L1(207 to 247) (from UniProt Q676U5 207-247) (domain or fragment)”, in assay [2], the equilibrium dissociation constant (Kd) stood at 3.93 µM.
